B1: TRIAPα: aptamer of 154 amino acids: variable region of 42 amino acids inserted into the thioredoxin protein; tested as GST fusion (protein)
chain: MSDKIIHLTDDSFDTDVLKADGAILVDFWAEWCGPAREGADGAICGYNLATLVMLGPSERVFCPLCEPCSSDIYELMGPCKMIAPILDEIADEYQGKLTVAKLNIDQNPGTAPKYGIRGIPTLLLFKNGEVASATKVGALSKGQLKEFLDANLA

What was measured:
Full length Trio (RhoG) = molecular target: T1, Full length Trio (RhoG) (Homo sapiens, UniProt O75962); assay: Yeast Exchange Assay (YEA), full length Trio on RhoG; assay type: cell-based; parameters: key to activation of the reporter gene by full length Trio, RhoG: “+ +” represents a slight activation of the reporter gene; “+ + + +” represents a strong activation of the reporter gene; “−” represents no activation of the reporter gene
T1 construct: Full length Trio was introduced into the YEA; expressed in transfected cells; host or cells: yeast strain TAT7
Excerpt: The wild type GTPase is fused to the LexA DNA binding domain (Matchmaker GAL4 two-hybrid, Clontech Laboratories, Inc., USA) and the effector to the […] (Matchmaker GAL4 two-hybrid, Clontech, Inc., USA). Under these conditions, no binding occurs in the TAT7 strain (De Toledo et al., 2000). Upon addition of a third plasmid expressing the GEF, the GTPase gets activated and binds to its effector, thus leading to the transactivation of the reporter gene LacZ.
Full length Trio was introduced into the YEA and tested for its ability to activate RhoA and RhoG respectively, in the presence or absence of TRIPα. The table below summarizes the effect of TRIPα on Trio as schematized in this Figure.
In order to better characterise the effect of TRIAPα on the Trio full length RhoGEF activity, the yeast exchange assay (YEA) was used, which is a quick and quantitative test derived from the classical two-hybrid system allowing to measure Rho-GEF activity and specificity (De Toledo et al., 2000). This functional assay is based on the fact that the GTPase binds to its effector only if it is activated by a RhoGEF. Briefly, yeasts are transformed with the GTPase fused to the LexA binding domain (LexA), and its effector to the GAL-4 Activating Domain (GAD), and with the adequate Rho-GEF partner in the yeast strain TAT7 (FIG. 7). […]

Kalirin GEFD2 (KalGEFD2) = molecular target: T2, Kalirin GEFD2 (KalGEFD2) (Rattus norvegicus, UniProt P97924); assay: In vitro GEF assay on RhoA; assay type: biochemical; parameters: key to in vitro GEF assay (inhibition): +++^2 and +^2 represent respectively a full and a partial (see FIG. 3) inhibitory effect; +++^2 and +^2 represent respectively a full and a partial (see FIG. 3) inhibitory effect; −−^2 represents a lack of inhibitory effect; settings: for Effect on Kalirin GEFD2 exchange activity on RhoA: 20-fold molar excess, KalGEFD2 1.7 μM
T2 construct: KalGEFD2, a.a; 1850-2190, 65% identity with TrioGEFD2; made in house
Description: To test the specificity of TRIAPα inhibition in vitro, exchange experiments were performed either on RhoA with different RhoA-specific GEFs: Trio GEFD2 (0.4 μM), Kalirin GEFD2 (KalGEFD2, 1.7 μM), p63RhoGEF (Souchet et al., 2002) (0.4 μM) and Lbc (amino acids 172-598; Zheng et al., 1995) (0.4 μM), or on RhoG, with the RhoG-specific GEF domain of Trio (TrioGEFD1, 0.1 μM). Exchange assays were performed with the recombinant GEFs as described in FIG. 2A. Different concentrations of RhoGEFs were used to yield a similar nucleotide exchange efficiency. For each exchange factor, three independent experiments were done in absence (black bar) or in the presence (grey bar) of a 20-fold molar excess of TRIAPα.
An in vitro guanine nucleotide exchange (GEF) assay was used to test whether the TrioGEFD2-binding aptamers could inhibit the catalytic activity of TrioGEFD2 towards RhoA. For this purpose, the aptamers TRIAPα, TRIAPβ and TRIAPγ (including the Trx gene) were excised from pEG202 as EcoRI/NotI fragments and cloned into pGEX4T1 EcoRI/NotI. The aptamers were then expressed and purified from bacteria as GST fusion proteins, using standard procedures (Smith and Johnson, 1988). GTPase-GST fusion proteins were prepared, loaded with [^3H]GDP and the guanine nucleotide release assays were performed as described (Debant et al., 1996), using recombinant GST-TrioGEFD2 (a.a. 1848-2298), TrioDH2 (a.a. 1848-2096). For each point, 0.3 μM GTPase was mixed with or without 0.4 μM GEF in presence of non-labeled GTP, and the reaction mix was filtered after 0 min and 15 mm reaction at 25° C. The catalytic activity of TrioGEFD2 was thus measured by the decrease of the GTPase-associated radioactivity. The results are expressed as the ratio “exchange after 15 min over exchange after 0 min” (% bound [^3H]GDP-RhoA). To measure the effect of the aptamers on the exchange activity, a 20-fold molar excess of GST-TRIAPs was pre-incubated with GEFD2 (or GEFD1) for 30 min on ice before the exchange assay was carried out. For each experiment, data were obtained in triplicate.
The effect of GST-TRIAPα on other Rho-GEFs that display in vitro exchange activity on RhoA was next tested to investigate whether TRIAPα inhibition was specific of TrioGEFD2. The exchange activities of the RhoGEF Lbc (a.a. 1-424, FIG. 3)(Zheng et al., 1995) and Dbl (a.a. 495-826, data not shown) were not affected by GST-TRIAPα. The effect of GST-TRIAPα on the catalytic activity of RhoGEFs that display a high sequence similarity with TrioGEFD2 was then tested: the recently identified RhoA-specific p63RhoGEF (Souchet et al., 2002) (a.a. 149-374, 71.5% identity with TrioGEFD2, 0.4 μM) and the second Rho-GEF domain of the Trio family member Kalirin (KalGEFD2, a.a. 1850-2190, 65% identity with TrioGEFD2, 1.7 μM). Different concentrations of RhoGEFs were used to yield similar nucleotide exchange […]. For each exchange factor, three independent experiments were done in absence or in the presence of a 20-fold molar excess of GST-TRIAPα. […] Thus, the in vitro inhibitory activity of TRIAPα was selective for TrioGEFD2 (see table I for summary of the tested RhoGEFs).

Row | Molecule | activation of the reporter gene by full length Trio, RhoG (Full length Trio (RhoG); +TRIPα (−TRIPα: + +)) | Effect on Kalirin GEFD2 exchange activity on RhoA (Kalirin GEFD2 (KalGEFD2)) | Effect on full-length Trio (TrioGEFD1) activation of RhoG in the YEA system (Full length Trio (RhoG)) | Effect on Kalirin GEFD2 exchange activity on RhoA (Kalirin GEFD2 (KalGEFD2); listed as GST-TRIAPα) | in vitro GEF assay (inhibition) (Kalirin GEFD2 (KalGEFD2); RhoGEF KalirinDH2PH2)
1 | AREGADGAICGYNLATLVMLGPSERVFCPLCEPCSSDIYELM [TRIPα, 42-amino acid peptide corresponding to the variable region of TRIAPα] | + + + + | slightly inhibited | – | – | –
2 | B1 | – | weakly inhibits | greatly enhanced TrioGEFD1 activation of RhoG | only weakly inhibited | +^2

Source: patent US8088892B2, “Inhibitors of proteins from the Rho-GEF family” (Centre National de la Recherche Scientifique (C.N.R.S.), priority 2002, dated 2012)
